Values of other authors in publication PMC5487772.
Where two headings read alike, the source gives them in different places.

Legend:
phosphacan [1] = target: phosphacan (UniProt Q62656)
phosphacan [2] = target: phosphacan (UniProt Q62656); remark: listed apart in the source

Chain of UniProt Q62656 (Q62656 25-1637): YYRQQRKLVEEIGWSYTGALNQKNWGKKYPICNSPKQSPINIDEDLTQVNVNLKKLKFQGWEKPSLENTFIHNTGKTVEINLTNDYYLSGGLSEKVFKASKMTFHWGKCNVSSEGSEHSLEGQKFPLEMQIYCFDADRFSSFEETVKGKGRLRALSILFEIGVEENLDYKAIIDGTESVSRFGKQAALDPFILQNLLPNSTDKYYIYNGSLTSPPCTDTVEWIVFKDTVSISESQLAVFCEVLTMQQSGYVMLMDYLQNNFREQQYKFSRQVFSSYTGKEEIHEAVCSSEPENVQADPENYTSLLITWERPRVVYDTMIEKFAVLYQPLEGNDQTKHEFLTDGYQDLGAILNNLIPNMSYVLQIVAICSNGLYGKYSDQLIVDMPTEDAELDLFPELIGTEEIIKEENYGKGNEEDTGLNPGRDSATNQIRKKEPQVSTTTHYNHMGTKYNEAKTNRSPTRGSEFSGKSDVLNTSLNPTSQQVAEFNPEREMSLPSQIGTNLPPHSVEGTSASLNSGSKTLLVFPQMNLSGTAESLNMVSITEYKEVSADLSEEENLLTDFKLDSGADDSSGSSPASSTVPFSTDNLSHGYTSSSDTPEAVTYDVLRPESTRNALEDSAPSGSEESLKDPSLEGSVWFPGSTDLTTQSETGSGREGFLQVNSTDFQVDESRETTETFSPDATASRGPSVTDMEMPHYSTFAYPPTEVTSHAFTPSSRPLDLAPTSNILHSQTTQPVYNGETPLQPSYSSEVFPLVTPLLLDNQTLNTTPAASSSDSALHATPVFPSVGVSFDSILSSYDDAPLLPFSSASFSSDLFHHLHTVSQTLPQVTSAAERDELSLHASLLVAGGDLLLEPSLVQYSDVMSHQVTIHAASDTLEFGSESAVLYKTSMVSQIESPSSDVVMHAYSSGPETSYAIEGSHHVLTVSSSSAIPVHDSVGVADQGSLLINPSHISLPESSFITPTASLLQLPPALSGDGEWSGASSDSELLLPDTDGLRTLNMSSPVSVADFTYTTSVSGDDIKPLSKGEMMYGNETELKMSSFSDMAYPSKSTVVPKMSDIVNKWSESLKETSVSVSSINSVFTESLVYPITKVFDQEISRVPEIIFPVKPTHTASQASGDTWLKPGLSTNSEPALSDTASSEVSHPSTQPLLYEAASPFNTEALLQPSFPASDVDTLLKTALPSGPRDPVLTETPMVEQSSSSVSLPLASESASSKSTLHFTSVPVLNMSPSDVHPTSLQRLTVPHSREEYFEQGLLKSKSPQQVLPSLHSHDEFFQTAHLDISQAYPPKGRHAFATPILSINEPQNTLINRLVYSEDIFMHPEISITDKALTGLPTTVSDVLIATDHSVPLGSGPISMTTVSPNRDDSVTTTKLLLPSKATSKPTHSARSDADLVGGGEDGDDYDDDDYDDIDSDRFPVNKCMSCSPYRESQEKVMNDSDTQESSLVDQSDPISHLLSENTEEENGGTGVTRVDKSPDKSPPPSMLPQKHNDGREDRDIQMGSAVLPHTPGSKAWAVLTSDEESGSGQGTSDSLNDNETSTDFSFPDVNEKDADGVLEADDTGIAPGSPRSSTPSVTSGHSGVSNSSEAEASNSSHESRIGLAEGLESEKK

Row | Kd (phosphacan [1]) | Kd (phosphacan [2]) | Substance
1 | 0.5 nM | – | N-CAM (from UniProt P13591)
2 | – | 0.5 nM | Ng-CAM (from UniProt Q03696)
